In PMC10885103 (2023):
Bridges are numbered along the chain shown (N, C = ends). Where no end group is shown, it is not given here. [ ]: non-standard residue; d: D form.

Biological target: T1, TNFR-1 CRD2 72-116 (Homo sapiens, UniProt P19438)
T1 chain: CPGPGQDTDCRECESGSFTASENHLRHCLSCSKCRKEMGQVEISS
Assay: grating-coupled interferometry

Binder: [dC](cysteinyl)[dF][dH][dC][dI][dW][dL]G[dD][dE][dC] (disulfide 4-11; also: CRD2 with C-terminal biotin linker) [d-TCPB]
- Kd: 1 µM
